Data on 3 molecules can be found in paper PMC1933414, “Role of RGM coreceptors in bone morphogenetic protein signaling” (Journal of Molecular Signaling, 2007).

What all share (assay): SPR; BIAcore 3000; BMP2 (350 RU) or BMP12 (1000 RU) amine-coupled on CM5 chips; soluble RGM injected at 0.1-100 nM, 30 uL/min, 500 s, 25°C; HBS-EP pH 7.4 (0.15 M NaCl); global analysis with BIAevaluation 3.2; double referencing
Assay [1] has as its target Human BMP2 (bone morphogenetic protein 2) (human) (UniProt P12643).
The target in assay [2] is Human BMP12 (bone morphogenetic protein 12) (human) (UniProt Q7Z4P5).
Assay [3] addresses T1, Human BMP12 (bone morphogenetic protein 12) (human, UniProt Q7Z4P5 322-450).
T1 construct: bone morphogenetic protein 12 (GDF7), human; the dimer peak from size exclusion was used; also called recombinant human BMP12; source: E. coli, purified (SP-Sepharose cation exchange, size exclusion; dimer peak)
T1 sequence (looked up): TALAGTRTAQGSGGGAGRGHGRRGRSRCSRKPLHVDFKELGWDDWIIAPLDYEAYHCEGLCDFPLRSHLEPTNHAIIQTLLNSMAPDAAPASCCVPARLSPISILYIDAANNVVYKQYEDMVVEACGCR
Particulars: both partners purified.

The target in assay [4] is T2, Human BMP2 (bone morphogenetic protein 2) (human, UniProt P12643 283-396).
T2 construct: bone morphogenetic protein 2, human; purified recombinant protein; also called recombinant human BMP2; source: produced and purified as previously described [37]
The following applies: both partners purified.

T2 sequence (P12643 283-396): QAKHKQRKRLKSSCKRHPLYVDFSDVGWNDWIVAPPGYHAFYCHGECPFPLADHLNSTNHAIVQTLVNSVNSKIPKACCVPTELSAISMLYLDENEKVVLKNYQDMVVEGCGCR
Sequence of Human BMP2 (bone morphogenetic protein 2) (human) (P12643 283-396): as above

On to “RGMb-Fc (ectodomain of RGMb fused to the Fc portion of human IgG) (from UniProt Q6NW40 46-413) (Fc fusion)”, for which, in assay [1], the Kd was found to be 5.43 nM, the off-rate (koff) is 0.000256 s⁻¹ and the kon was found to be 47200 M⁻¹ s⁻¹. In assay [2], this molecule registered a Kd of 2.06 nM, a koff of 0.000118 s⁻¹ and a kon of 56900 M⁻¹ s⁻¹.
In the case of “RGMc-Fc (ectodomain of RGMc fused to the Fc portion of human IgG) (from UniProt Q6ZVN8 36-400) (Fc fusion)”, in assay [1], the Kd is 4.22 nM, the koff was 0.000363 s⁻¹ and the kon was found to be 86100 M⁻¹ s⁻¹. Further, in assay [2], the Kd worked out at 1.22 nM, the koff was 9.22e-05 s⁻¹ and the kon came to 75600 M⁻¹ s⁻¹.

B1: RGMa-Fc (ectodomain of RGMa fused to the Fc portion of human IgG) (Fc fusion)
chain: CKILKCNSEFWSATSGSHAPASDDTPEFCAALRSYALCTRRTARTCRGDLAYHSAVHGIEDLMSQHNCSKDGPTSQPRLRTLPPAGDSQERSDSPEICHYEKSFHKHSATPNYTHCGLFGDPHLRTFTDRFQTCKVQGAWPLIDNNYLNVQVTNTPVLPGSAATATSKLTIIFKNFQECVDQKVYQAEMDELPAAFVDGSKNGGDKHGANSLKITEKVSGQHVEIQAKYIGTTIVVRQVGRYLTFAVRMPEEVVNAVEDWDSQGLYLCLRGCPLNQQIDFQAFHTNAEGTGARRLAAASPAPTAPETFPYETAVAKCKEKLPVEDLYYQACVFDLLTTGDVNFTLAAYYALEDVKMLHSNKDKLHLYERTRDLPGRA
In assay [3], B1 had a Kd of 1.41 nM, a koff of 0.000179 s⁻¹ and a kon of 127000 M⁻¹ s⁻¹. In assay [4], this molecule had a Kd of 2.46 nM, a koff of 0.000364 s⁻¹ and a kon of 148000 M⁻¹ s⁻¹.
